# T1: EDNRB-VC (human, UniProt P24530 27-442)
# T1 construct: whole, on cells; Adenovirus-expressed in U-2 OS cells; not shown: VC155, C-terminal fragment of Venus
# T1 sequence (looked up): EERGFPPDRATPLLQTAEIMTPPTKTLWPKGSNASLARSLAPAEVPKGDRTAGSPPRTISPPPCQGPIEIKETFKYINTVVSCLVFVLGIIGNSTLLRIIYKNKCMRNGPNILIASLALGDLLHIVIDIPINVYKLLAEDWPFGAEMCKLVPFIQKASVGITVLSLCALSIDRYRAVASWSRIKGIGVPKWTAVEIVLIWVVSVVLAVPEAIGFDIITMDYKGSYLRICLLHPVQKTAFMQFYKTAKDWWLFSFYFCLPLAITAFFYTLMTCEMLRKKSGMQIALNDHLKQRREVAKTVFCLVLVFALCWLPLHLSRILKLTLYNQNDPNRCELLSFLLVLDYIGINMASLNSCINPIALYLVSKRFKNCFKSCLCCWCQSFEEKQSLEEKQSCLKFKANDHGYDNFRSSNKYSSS
# T2: TACR3-VC (human, UniProt P29371 1-465)
# T2 construct: whole, on cells; Adenovirus-expressed in U-2 OS cells; not shown: VC155, C-terminal fragment of Venus
# T2 sequence (looked up): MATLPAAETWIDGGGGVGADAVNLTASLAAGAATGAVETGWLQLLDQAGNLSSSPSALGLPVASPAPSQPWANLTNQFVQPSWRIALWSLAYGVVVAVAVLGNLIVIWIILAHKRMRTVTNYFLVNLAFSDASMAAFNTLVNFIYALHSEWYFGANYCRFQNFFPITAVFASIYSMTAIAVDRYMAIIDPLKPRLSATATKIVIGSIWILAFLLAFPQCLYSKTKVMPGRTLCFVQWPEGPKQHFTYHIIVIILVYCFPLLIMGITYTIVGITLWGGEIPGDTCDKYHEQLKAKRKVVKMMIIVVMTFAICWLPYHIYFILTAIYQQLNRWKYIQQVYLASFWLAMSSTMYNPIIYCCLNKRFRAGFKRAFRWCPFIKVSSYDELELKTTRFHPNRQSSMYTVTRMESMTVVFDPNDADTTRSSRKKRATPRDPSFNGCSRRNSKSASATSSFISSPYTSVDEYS
# T3: CHRM1-VC (human, UniProt P11229 1-460)
# T3 construct: whole, on cells; Adenovirus-expressed in U-2 OS cells; not shown: VC155, C-terminal fragment of Venus
# T3 sequence (looked up): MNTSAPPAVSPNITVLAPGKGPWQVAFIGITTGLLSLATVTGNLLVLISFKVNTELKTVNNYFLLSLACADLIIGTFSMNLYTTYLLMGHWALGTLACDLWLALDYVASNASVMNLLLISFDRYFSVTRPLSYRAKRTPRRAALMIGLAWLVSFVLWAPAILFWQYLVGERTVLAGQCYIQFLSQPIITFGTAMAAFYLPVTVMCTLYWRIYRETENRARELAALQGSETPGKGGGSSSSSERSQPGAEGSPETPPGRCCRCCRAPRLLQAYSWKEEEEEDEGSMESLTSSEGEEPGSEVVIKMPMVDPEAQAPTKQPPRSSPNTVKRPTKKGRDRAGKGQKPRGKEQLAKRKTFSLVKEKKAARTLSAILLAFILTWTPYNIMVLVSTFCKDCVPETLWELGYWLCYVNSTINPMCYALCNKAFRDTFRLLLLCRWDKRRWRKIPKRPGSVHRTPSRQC
# T4: APLNR-VC (human, UniProt P35414 1-380)
# T4 construct: whole, on cells; Adenovirus-expressed in U-2 OS cells; not shown: VC155, C-terminal fragment of Venus
# T4 sequence (looked up): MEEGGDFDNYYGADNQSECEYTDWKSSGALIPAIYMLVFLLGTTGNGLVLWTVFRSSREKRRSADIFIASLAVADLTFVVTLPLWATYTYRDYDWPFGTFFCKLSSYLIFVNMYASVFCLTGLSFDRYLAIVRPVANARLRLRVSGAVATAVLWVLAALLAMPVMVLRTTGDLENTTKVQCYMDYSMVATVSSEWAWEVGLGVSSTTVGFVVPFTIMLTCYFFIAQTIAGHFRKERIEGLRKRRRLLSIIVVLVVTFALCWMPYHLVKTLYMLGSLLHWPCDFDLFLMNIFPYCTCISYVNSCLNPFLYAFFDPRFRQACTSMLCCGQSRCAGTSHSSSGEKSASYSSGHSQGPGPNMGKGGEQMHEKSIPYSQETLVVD
# T5: CHRM1 (human, UniProt P11229 1-460)
# T5 construct: whole, on cells; Untagged: adenovirus-expressed in U-2 OS or MDA-MB-231 cells, or endogenous in patient derived cells; also called Cholinergic Receptor Muscarinic 1
# T5 sequence (looked up): T3 sequence (looked up)
# B1: ADRA1A-VC (receptor, human, UniProt P35348 1-466, looked up)
# chain: MVFLSGNASDSSNCTQPPAPVNISKAILLGVILGGLILFGVLGNILVILSVACHRHLHSVTHYYIVNLAVADLLLTSTVLPFSAIFEVLGYWAFGRVFCNIWAAVDVLCCTASIMGLCIISIDRYIGVSYPLRYPTIVTQRRGLMALLCVWALSLVISIGPLFGWRQPAPEDETICQINEEPGYVLFSALGSFYLPLAIILVMYCRVYVVAKRESRGLKSGLKTDKSDSEQVTLRIHRKNAPAGGSGMASAKTKTHFSVRLLKFSREKKAAKTLGIVVGCFVLCWLPFFLVMPIGSFFPDFKPSETVFKIVFWLGYLNSCINPIIYPCSSQEFKKAFQNVLRIQCLCRKQSSKHALGYTLHPPSQAVEGQHKDMVRIPVGSRETFYRISKTDGVCEWKFFSSMPRGSARITVSKDQSSCTTARVRSKSFLQVCCCVGPSTPSLDKNHQVPTIKVHTISLSENGEEV
# notes: whole, on cells; Adenovirus-expressed in U-2 OS cells; not shown: VC155, C-terminal fragment of Venus
# B2: CXCR4-EGFP (receptor, human, UniProt P61073 1-352, looked up)
# chain: MEGISIYTSDNYTEEMGSGDYDSMKEPCFREENANFNKIFLPTIYSIIFLTGIVGNGLVILVMGYQKKLRSMTDKYRLHLSVADLLFVITLPFWAVDAVANWYFGNFLCKAVHVIYTVNLYSSVLILAFISLDRYLAIVHATNSQRPRKLLAEKVVYVGVWIPALLLTIPDFIFANVSEADDRYICDRFYPNDLWVVVFQFQHIMVGLILPGIVILSCYCIIISKLSHSKGHQKRKALKTTVILILAFFACWLPYYIGISIDSFILLEIIKQGCEFENTVHKWISITEALAFFHCCLNPILYAFLGAKFKTSAQHALTSVSRGSSLKILSKGKRGGHSSVSTESESSSFHSS
# notes: whole, on cells; also called CXCR4-GFP; CXCR-EGFP; not shown: EGFP/GFP from the pAdHTS-GFPC vector
# B3: CXCR4-VN (receptor, human, UniProt P61073 1-352, looked up)
# chain: B2 chain
# notes: whole, on cells; Adenovirus-expressed in U-2 OS cells; also called CXCR4 fused with N-terminal fragment of Venus; not shown: VNm10, N-terminal fragment of Venus (VN154 variant with L46F and L64F)
# Experiments:
# [1] = target: B3; assay: BiFC, U-2 OS cells; score=(positive cells/total cells)x100
# Experimental: (§1) Images of about 200 cells from each well were analyzed with Multi-target analysis software in IN Cell Developer ToolBox (GE Healthcare, Waukesha, Wis.). Cell boundary was marked based on Hoechst signal, and fluorescence intensity per cell was measured. Cells with fluorescence intensities higher than background level were considered as BiFC positive cells. […] Positive cells were determined, and positive cell count ratio (“BiFC score”) was calculated as (positive cells/total cells)×100 (see Table 4 below).
# [2] = target: T1, EDNRB-VC; assay: co-internalization of CXCR4-GFP after GPCRx agonist, U-2 OS cells
# Experimental: (§2) Images were obtained before and 30 min after agonist stimulation, and analyzed using IN Cell Analyzer 2000.
# (§3) U-2 OS cells were seeded at a density of 3000 cells per well in a black 96-well clear-bottom plate in 100 μl of McCoy's 5A medium supplemented with 10% FBS. […] Two days post-transduction, cells were stimulated with GPCRx agonists for 30 min and fixed with 2% formaldehyde.
# [3] = target: T2, TACR3-VC; assay: as above
# Experimental: as §2, §3
# [4] = target: T3, CHRM1-VC; assay: as above
# Experimental: as §2, §3
# [5] = target: T6, SSTR2-VC (human, UniProt P30874 1-369); assay: as above
# T6 construct: whole, on cells; Adenovirus-expressed in U-2 OS cells; not shown: VC155, C-terminal fragment of Venus
# T6 sequence (P30874 whole entry, the tested form may be a part): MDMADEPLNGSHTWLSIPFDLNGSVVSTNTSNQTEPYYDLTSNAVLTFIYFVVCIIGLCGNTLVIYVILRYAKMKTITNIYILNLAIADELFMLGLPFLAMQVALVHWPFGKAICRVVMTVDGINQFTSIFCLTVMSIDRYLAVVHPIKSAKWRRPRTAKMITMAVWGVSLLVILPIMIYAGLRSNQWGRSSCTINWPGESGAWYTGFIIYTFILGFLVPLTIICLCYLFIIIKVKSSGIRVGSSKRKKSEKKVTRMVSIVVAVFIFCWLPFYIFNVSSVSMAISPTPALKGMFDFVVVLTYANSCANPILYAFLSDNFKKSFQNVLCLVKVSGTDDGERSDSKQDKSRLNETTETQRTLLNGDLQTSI
# Experimental: as §2, §3
# [6] = target: T7, MLNR-VC (human, UniProt O43193 1-412); assay: as above
# T7 construct: whole, on cells; Adenovirus-expressed in U-2 OS cells; not shown: VC155, C-terminal fragment of Venus
# T7 sequence (O43193 whole entry, the tested form may be a part): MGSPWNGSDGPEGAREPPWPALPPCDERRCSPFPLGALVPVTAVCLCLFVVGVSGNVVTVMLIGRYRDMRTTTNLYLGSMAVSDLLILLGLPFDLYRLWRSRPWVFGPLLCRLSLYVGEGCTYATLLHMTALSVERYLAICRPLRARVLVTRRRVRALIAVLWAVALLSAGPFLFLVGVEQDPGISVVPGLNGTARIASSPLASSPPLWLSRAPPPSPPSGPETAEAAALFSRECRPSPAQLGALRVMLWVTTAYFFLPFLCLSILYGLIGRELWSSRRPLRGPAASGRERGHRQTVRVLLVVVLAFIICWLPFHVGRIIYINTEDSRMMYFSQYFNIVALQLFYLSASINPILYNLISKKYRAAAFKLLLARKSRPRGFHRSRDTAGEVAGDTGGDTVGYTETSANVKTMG
# Experimental: as §2, §3
# [7] = target: T8, NTSR1-VC (human, UniProt P30989 1-418); assay: as above
# T8 construct: whole, on cells; Adenovirus-expressed in U-2 OS cells; not shown: VC155, C-terminal fragment of Venus
# T8 sequence (P30989 whole entry, the tested form may be a part): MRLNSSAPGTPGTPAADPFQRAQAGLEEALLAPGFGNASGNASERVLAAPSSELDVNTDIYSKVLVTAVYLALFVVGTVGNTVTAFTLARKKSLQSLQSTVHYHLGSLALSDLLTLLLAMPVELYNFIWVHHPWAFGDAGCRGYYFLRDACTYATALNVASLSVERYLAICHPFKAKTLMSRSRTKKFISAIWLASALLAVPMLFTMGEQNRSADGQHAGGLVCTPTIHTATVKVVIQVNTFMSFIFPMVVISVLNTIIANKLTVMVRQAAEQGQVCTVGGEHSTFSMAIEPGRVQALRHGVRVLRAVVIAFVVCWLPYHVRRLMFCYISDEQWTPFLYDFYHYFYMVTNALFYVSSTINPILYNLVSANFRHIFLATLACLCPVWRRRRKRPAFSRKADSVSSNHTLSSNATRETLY
# Experimental: as §2, §3
# [8] = target: T4, APLNR-VC; assay: as above
# Experimental: as §2, §3
# [9] = target: T9, HRH1-VC (human, UniProt P35367 1-487); assay: as above
# T9 construct: whole, on cells; Adenovirus-expressed in U-2 OS cells; not shown: VC155, C-terminal fragment of Venus
# T9 sequence (P35367 whole entry, the tested form may be a part): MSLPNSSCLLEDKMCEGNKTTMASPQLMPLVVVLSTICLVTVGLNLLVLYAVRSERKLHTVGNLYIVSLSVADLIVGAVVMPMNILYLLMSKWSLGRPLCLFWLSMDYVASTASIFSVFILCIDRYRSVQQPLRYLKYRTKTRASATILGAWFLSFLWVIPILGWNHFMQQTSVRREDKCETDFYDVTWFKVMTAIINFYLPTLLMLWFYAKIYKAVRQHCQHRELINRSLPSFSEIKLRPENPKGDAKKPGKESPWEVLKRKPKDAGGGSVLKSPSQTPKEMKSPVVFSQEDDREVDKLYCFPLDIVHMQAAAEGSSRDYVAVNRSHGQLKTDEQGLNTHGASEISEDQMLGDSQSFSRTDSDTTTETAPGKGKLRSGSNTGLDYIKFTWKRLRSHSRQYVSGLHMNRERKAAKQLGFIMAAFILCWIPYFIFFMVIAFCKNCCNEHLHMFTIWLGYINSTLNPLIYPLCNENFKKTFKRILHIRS
# Experimental: as §2, §3
# [10] = target: T10, ADRB2-VC (human, UniProt P07550 1-413); assay: as above
# T10 construct: whole, on cells; Adenovirus-expressed in U-2 OS cells; not shown: VC155, C-terminal fragment of Venus
# Experimental: as §2, §3
# [11] = target: T11, HRH1 (human, UniProt P35367 1-487); assay: internalization inhibition assay, CXCR4-GFP U-2 OS cells transduced with GPCRx; CXCL12 and/or GPCRx antagonist
# T11 construct: whole, on cells; Untagged: adenovirus-expressed in U-2 OS or MDA-MB-231 cells, or endogenous in MDA-MB-231 cells; also called Histamine Receptor H1
# T11 sequence (P35367 whole entry): as the sequence (P35367 whole entry, the tested form may be a part) above
# Experimental: (§4) Internalization of CXCR4-GFP was observed as GFP granules using IN Cell Analyzer 2500. Loss of GFP expression on the cell surface or appearance of GFP granules inside the cells were considered as CXCR4-GFP co-internalization.
# (§5) CXCR4-GFP expressed U-2 OS cells were seeded at a density of 5000 cells per well in a black 96-well clear-bottom plate in 100 μl of McCoy's 5A medium supplemented with 10% FBS. On the following day, the cells were transduced with adenoviruses encoding GPCRx (30 MOI).
# [12] = target: T12, ADRB2 (human, UniProt P07550 1-413); assay: as above
# T12 construct: whole, on cells; Untagged: adenovirus-expressed in U-2 OS or MDA-MB-231 cells, or endogenous in patient derived cells and PDX tissue; also called Adrenoceptor Beta 2; Ad-ADRB2
# Experimental: as §4, §5
# [13] = target: T5, CHRM1; assay: as above
# Experimental: as §4, §5
# [14] = target: T6, SSTR2-VC; assay: BiFC and co-internalization assay, U-2 OS cells
# [15] = target: T4, APLNR-VC; assay: BiFC and co-internalization assay, U-2 OS cells
# [16] = target: T13, CNR2-VC (human, UniProt P34972 1-360); assay: BiFC and co-internalization assay, U-2 OS cells
# T13 construct: whole, on cells; Adenovirus-expressed in U-2 OS cells; also called Cannabinoid Receptor 2-VC; CB2; not shown: VC155, C-terminal fragment of Venus
# T13 sequence (P34972 whole entry, the tested form may be a part): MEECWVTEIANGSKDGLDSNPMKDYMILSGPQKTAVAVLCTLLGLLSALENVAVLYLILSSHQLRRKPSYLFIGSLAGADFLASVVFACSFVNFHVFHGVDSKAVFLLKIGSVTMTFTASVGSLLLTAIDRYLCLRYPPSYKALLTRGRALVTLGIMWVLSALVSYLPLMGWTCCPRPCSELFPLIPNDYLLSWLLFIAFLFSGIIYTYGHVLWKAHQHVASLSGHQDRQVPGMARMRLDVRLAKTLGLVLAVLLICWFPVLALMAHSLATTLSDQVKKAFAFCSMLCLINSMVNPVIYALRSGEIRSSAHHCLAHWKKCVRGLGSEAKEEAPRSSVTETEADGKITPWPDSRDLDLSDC
# [17] = target: T14, GCGR-VC (human, UniProt P47871 26-477); assay: BiFC, U-2 OS cells co-expressing CXCR4-VN and GCGR-VC
# T14 construct: whole, on cells; Adenovirus-expressed in U-2 OS cells; also called glucagon receptor-VC; not shown: VC155, C-terminal fragment of Venus
# T14 sequence (P47871 26-477): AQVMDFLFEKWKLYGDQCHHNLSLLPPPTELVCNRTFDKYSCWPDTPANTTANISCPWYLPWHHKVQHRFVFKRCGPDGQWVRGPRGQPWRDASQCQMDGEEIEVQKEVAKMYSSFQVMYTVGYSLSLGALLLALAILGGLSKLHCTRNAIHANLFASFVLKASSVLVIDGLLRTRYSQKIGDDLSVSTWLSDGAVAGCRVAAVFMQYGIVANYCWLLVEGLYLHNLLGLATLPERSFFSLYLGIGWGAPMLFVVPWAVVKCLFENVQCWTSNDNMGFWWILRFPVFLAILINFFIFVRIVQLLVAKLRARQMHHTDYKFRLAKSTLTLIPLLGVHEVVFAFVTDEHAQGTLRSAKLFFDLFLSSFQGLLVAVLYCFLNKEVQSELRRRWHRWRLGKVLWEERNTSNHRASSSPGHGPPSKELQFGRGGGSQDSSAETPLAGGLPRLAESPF
# Experimental: as §1
# [18] = target: T1, EDNRB-VC; assay: BiFC, U-2 OS cells
# Experimental: as §1
# [19] = target: T2, TACR3-VC; assay: BiFC, U-2 OS cells
# Experimental: as §1
# [20] = target: T3, CHRM1-VC; assay: BiFC, U-2 OS cells
# Experimental: as §1
# [21] = target: T15, PTGER2-VC (human, UniProt P43116 1-358); assay: BiFC, U-2 OS cells
# T15 construct: whole, on cells; Adenovirus-expressed in U-2 OS cells; not shown: VC155, C-terminal fragment of Venus
# T15 sequence (P43116 whole entry, the tested form may be a part): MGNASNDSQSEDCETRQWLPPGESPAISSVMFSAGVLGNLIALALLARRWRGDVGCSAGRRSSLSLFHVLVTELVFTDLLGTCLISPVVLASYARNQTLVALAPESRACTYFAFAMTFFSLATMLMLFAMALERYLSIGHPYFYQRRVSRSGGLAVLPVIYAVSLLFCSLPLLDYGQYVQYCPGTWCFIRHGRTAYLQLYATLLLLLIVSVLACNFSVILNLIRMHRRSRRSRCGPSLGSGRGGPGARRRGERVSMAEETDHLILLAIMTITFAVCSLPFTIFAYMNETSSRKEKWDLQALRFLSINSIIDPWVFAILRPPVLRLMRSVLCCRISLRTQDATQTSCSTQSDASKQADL
# Experimental: as §1
# [22] = target: T7, MLNR-VC; assay: BiFC, U-2 OS cells
# Experimental: as §1
# [23] = target: T8, NTSR1-VC; assay: BiFC, U-2 OS cells
# Experimental: as §1
# [24] = target: T9, HRH1-VC; assay: BiFC, U-2 OS cells
# Experimental: as §1
# [25] = target: T10, ADRB2-VC; assay: BiFC, U-2 OS cells
# Experimental: as §1
binder,measurement,setting,value
B1,BiFC score,[1],7.85
B2,binding result,[2],binds
same,binding result,[3],binds
same,binding result,[4],binds
same,binding result,[5],binds
same,binding result,[6],binds
same,binding result,[7],binds
same,binding result,[8],binds
same,binding result,[9],binds
same,binding result,[10],binds
same,binding result,[11],binds
same,binding result,[12],binds
same,binding result,[13],binds
B3,binding result,[14],binds
same,binding result,[15],binds
same,binding result,[16],binds
same,binding result,[17],no binding
same,binding result,[18],binds
same,binding result,[19],binds
same,binding result,[20],binds
same,binding result,[21],binds
same,binding result,[22],binds
same,binding result,[23],binds
same,binding result,[24],binds
same,binding result,[25],binds
